Experimental data taken from paper PMC5996148, “Data set on G4 DNA interactions with human proteins”.

What was measured:
[1] = target: Coiled-coil domain-containing protein 28A (human, UniProt Q8IWP9 1-274); assay: protein microarray; 2.5 uM ON; 4.85 at 25 uM; Microarray: 20 mM Tris pH 7.5, 5 mM MgCl2, 100 mM KCl, 0.1% Tween-20, A/T-rich ON blocker mix; EMSA: 20 mM Tris-HCl pH 8, 100 mM KCl, 200 nM ON, 0-200 nM BRD3; conditions: protein: commercial; label: biotin; intramolecular parallel G4
[2] = target: T1, hypothetical protein HSPC111 (human, UniProt Q9Y3C1 1-178); assay: as above; conditions: protein: commercial; label: biotin; intramolecular parallel G4
T1 sequence: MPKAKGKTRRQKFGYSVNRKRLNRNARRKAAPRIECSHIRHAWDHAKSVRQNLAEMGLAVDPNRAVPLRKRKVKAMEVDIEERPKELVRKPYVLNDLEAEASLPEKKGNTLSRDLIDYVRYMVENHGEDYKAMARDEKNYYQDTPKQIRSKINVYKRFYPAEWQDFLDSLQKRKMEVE

[3] = target: T2, Peptidyl-tRNA hydrolase 2, mitochondrial (human, UniProt Q9Y3E5 1-179); assay: as above; conditions: protein: commercial; label: biotin; intramolecular parallel G4
T2 sequence: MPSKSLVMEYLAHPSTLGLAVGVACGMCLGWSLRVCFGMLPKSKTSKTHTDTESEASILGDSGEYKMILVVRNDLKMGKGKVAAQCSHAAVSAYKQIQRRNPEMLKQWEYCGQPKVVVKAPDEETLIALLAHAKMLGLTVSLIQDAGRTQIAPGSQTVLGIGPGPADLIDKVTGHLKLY

[4] = target: peptidyl arginine deiminase, type IV (human, UniProt Q9UM07 1-663); assay: as above; conditions: protein: commercial; label: biotin; intramolecular parallel G4
peptidyl arginine deiminase, type IV, sequence (Q9UM07 whole entry): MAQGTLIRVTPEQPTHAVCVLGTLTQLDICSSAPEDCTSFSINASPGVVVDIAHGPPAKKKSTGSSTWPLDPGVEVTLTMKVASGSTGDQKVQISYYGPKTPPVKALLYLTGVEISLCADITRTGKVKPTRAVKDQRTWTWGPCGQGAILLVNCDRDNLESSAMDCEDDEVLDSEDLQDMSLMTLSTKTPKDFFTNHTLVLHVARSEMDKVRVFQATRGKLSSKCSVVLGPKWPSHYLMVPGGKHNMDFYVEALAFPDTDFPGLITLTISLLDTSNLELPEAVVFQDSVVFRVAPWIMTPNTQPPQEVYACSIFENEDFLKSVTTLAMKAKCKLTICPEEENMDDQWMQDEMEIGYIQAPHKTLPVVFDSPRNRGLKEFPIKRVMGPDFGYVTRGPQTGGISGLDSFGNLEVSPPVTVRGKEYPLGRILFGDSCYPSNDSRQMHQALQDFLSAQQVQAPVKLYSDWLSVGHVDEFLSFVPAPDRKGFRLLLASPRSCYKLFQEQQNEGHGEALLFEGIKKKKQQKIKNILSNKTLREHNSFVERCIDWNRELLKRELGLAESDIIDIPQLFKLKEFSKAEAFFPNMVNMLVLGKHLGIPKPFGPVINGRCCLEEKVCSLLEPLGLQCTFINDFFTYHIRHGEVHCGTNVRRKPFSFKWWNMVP

[5] = target: T3, bromodomain containing 3 (human, UniProt Q15059-2 1-556); assay: as above; conditions: protein: commercial; label: biotin; intramolecular parallel G4
T3 sequence (Q15059 other isoform, or with tags, fused parts or gaps): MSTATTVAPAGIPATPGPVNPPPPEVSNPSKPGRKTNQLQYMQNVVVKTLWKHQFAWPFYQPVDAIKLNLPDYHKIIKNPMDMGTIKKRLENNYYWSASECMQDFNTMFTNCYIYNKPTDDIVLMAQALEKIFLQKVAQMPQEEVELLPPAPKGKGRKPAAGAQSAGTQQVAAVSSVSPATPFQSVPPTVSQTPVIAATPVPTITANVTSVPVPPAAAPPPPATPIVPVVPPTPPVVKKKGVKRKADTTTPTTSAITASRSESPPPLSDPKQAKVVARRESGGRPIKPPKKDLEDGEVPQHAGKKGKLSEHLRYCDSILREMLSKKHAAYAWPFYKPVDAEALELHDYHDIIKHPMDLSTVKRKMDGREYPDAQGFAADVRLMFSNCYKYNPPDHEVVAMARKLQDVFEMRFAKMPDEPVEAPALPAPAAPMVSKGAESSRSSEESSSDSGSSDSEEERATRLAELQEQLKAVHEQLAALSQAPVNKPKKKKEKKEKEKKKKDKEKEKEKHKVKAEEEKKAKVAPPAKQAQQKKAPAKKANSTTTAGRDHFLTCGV

[6] = target: T4, additional sex combs like 1 (human, UniProt Q6P1M8 1-84); assay: protein microarray; 2.5 uM ON; 4.86 at 25 uM; Microarray: 20 mM Tris pH 7.5, 5 mM MgCl2, 100 mM KCl, 0.1% Tween-20, A/T-rich ON blocker mix; EMSA: 20 mM Tris-HCl pH 8, 100 mM KCl, 200 nM ON, 0-200 nM BRD3; conditions: protein: commercial; label: biotin; intramolecular parallel G4
T4 sequence: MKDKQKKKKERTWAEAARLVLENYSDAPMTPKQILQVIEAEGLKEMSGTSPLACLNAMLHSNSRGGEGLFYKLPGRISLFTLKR

[7] = target: T5, survival motor neuron domain containing 1 (human, UniProt O75940 1-238); assay: as above; conditions: protein: commercial; label: biotin; intramolecular parallel G4
T5 sequence: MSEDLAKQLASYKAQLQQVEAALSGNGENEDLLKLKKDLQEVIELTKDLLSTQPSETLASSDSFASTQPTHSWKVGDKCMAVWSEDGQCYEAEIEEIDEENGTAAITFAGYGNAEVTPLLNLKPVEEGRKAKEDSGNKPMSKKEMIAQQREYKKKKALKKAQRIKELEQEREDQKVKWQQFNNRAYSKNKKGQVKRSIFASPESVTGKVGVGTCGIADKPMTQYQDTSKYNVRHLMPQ

[8] = target: T6, LOC153684 protein (FLJ42001 fis, clone SPLEN2029912) (human, UniProt Q6ZVW3 1-145); assay: as above; conditions: protein: commercial; label: biotin; intramolecular parallel G4
T6 sequence: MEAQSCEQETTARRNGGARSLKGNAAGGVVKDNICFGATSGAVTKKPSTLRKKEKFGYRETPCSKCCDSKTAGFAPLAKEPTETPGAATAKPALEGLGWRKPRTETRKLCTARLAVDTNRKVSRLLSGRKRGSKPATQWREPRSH

[9] = target: actin related protein 2/3 complex, subunit 1B, 41 kDa (human, UniProt O15143 1-372); assay: as above; conditions: protein: commercial; label: biotin; intramolecular parallel G4
[10] = target: Cyclin-dependent kinase-like 3 (human, UniProt Q8IVW4-2 1-455); assay: as above; conditions: protein: commercial; label: biotin; intramolecular parallel G4
Cyclin-dependent kinase-like 3, sequence (Q8IVW4 1-455): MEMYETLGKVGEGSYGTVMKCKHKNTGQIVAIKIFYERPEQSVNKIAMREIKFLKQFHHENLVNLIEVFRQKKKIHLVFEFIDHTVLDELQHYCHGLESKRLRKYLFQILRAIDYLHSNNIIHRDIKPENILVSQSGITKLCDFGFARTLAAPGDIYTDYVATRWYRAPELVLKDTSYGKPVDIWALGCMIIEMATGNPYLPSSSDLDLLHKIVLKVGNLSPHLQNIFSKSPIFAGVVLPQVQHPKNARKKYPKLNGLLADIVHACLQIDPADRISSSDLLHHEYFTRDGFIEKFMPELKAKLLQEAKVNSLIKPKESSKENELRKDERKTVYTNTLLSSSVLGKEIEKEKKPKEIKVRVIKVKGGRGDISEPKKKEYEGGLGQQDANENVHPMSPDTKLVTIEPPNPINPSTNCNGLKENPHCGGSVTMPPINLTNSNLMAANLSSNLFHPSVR

[11] = target: T7, ankyrin repeat and zinc finger domain containing 1 (human, UniProt Q9H8Y5 1-726); assay: as above; conditions: protein: commercial; label: biotin; intramolecular parallel G4
T7 sequence: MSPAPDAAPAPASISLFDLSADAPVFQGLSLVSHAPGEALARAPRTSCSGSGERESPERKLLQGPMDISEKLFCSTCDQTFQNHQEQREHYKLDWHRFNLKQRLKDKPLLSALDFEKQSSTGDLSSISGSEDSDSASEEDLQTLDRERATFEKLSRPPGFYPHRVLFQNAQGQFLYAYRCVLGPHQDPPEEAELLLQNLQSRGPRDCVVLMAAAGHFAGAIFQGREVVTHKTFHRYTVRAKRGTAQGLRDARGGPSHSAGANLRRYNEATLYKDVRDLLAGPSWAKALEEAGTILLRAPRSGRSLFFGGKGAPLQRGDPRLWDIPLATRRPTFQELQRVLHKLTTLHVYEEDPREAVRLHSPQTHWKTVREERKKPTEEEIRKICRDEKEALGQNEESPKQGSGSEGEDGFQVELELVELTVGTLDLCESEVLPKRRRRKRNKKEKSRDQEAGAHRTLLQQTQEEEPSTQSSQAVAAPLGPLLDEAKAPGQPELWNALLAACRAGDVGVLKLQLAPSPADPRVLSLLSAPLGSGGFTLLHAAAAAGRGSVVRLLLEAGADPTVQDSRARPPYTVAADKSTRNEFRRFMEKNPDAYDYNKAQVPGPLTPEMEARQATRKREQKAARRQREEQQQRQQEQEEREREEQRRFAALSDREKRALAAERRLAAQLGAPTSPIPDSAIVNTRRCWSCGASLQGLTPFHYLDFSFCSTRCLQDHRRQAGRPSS

[12] = target: peripheral myelin protein 2 (human, UniProt P02689 1-132); assay: as above; conditions: protein: commercial; label: biotin; intramolecular parallel G4
peripheral myelin protein 2, sequence (P02689 whole entry): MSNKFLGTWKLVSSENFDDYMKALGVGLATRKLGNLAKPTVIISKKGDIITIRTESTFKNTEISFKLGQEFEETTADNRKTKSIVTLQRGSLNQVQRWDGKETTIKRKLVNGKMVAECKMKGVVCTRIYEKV

[13] = target: T8, GABA(A) receptor-associated protein (human, UniProt O95166 1-117); assay: as above; conditions: protein: commercial; label: biotin; intramolecular parallel G4
T8 sequence (O95166 whole entry): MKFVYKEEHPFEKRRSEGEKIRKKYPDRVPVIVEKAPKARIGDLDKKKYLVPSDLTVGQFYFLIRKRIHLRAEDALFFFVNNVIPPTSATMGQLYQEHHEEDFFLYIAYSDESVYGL

[14] = target: T9, chromosome 1 open reading frame 63 (human, UniProt Q9BUV0 1-290); assay: as above; conditions: protein: commercial; label: biotin; intramolecular parallel G4
T9 sequence: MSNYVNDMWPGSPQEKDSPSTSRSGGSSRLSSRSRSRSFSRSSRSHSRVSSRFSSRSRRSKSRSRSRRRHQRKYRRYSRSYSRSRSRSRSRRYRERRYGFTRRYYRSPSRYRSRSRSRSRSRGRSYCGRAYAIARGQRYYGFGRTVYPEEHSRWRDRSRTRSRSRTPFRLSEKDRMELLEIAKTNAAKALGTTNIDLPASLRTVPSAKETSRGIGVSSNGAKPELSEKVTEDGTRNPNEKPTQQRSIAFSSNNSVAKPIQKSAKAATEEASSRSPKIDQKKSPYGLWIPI

[15] = target: T4, additional sex combs like 1; assay: protein microarray; 2.5 uM ON; 6.47 at 25 uM; Microarray: 20 mM Tris pH 7.5, 5 mM MgCl2, 100 mM KCl, 0.1% Tween-20, A/T-rich ON blocker mix; EMSA: 20 mM Tris-HCl pH 8, 100 mM KCl, 200 nM ON, 0-200 nM BRD3; conditions: protein: commercial; label: biotin; G4; mixed topology for unmodified strand, CD differs when biotinylated
[16] = target: T8, GABA(A) receptor-associated protein; assay: as above; conditions: protein: commercial; label: biotin; G4; mixed topology for unmodified strand, CD differs when biotinylated
[17] = target: T3, bromodomain containing 3; assay: as above; conditions: protein: commercial; label: biotin; G4; mixed topology for unmodified strand, CD differs when biotinylated
[18] = target: T9, chromosome 1 open reading frame 63; assay: as above; conditions: protein: commercial; label: biotin; G4; mixed topology for unmodified strand, CD differs when biotinylated

Coiled-coil domain-containing protein 28A, sequence (Q8IWP9 whole entry, the tested form may be a part): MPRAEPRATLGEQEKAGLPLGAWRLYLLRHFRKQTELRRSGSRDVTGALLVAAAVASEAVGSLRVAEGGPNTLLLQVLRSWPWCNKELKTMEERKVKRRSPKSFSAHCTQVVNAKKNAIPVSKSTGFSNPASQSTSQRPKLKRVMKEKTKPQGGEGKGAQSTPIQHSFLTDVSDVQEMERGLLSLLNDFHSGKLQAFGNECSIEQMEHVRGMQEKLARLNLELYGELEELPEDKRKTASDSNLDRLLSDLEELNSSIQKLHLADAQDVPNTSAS

Binder	binding signal [1]	binding signal [2]	binding signal [3]	binding signal [4]	binding signal [5]	binding signal [6]	binding signal [7]	binding signal [8]	binding signal [9]	binding signal [10]	binding signal [11]	binding signal [12]	binding signal [13]	binding signal [14]	binding signal [15]	binding signal [16]	binding signal [17]	binding signal [18]
GGTGACAGGGGTATGGGGAGGGG (structured_DNA, 3'-biotin) [G4-2 biotinylated (Ct1)]	6.78 Z-score	6.78 Z-score	3.46 Z-score	6.78 Z-score	6.79 Z-score	6.79 Z-score	6.4 Z-score	6.45 Z-score	6.19 Z-score	6.29 Z-score	6.68 Z-score	6.73 Z-score	6.62 Z-score	6.17 Z-score				
GGGGACAGGGGTATGGGGAGGGG (structured_DNA, 3'-biotin) [G4-3 biotinylated (CtG)]															9.22 Z-score	7.02 Z-score	4.51 Z-score	5.93 Z-score
